The target in this experiment is human beta-tryptase (human, UniProt Q15661). The experiment in a line: BLI steady state.
Sequence of human beta-tryptase (Q15661 31-275): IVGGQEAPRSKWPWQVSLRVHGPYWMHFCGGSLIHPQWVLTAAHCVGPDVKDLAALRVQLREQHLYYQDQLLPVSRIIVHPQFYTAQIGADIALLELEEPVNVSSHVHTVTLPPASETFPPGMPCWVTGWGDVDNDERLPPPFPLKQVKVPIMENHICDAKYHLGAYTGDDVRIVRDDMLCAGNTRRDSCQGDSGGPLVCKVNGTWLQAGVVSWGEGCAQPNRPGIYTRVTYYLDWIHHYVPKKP

B1: E104.v1 6DS (LC.F116C.Q124C.HC.F126C.A141C) (antibody, V domains shown)
VH: EVQLVESGPGCVKPSETLSLTCTVSRFSLIGYAITWIRQPPGKGLEWIGGISSAATTFYSSWAKSRVTISVDTSKNQFSLKLSSVTAADTAVYYCARDPRGYGAALDRLDLWGQGTCVTVSS
VL: DIQMTQSPSSLSASVGDRVTITCQSIKSVYNNRLGWYQQKCGKAPKLLIYETSILTSGVPSRFSGSGSGTDFTLTISSLQCEDFATYYCAGGFDRSGDTTFGQGTKVEIKR
Usually Kd stands for the constant that tells how readily two partners part at equilibrium. Low values mean a tighter complex, high ones a looser complex. Turning to B1, binding was characterised by a dissociation constant (Kd) of 3.16 nM.

B2: E104.v1 4DS (antibody, V domains shown)
VH: EVQLVESGPGCVKPSETLSLTCTVSRFSLIGYAITWIRQPPGKGLEWIGGISSAATTFYSSWAKSRVTISVDTSKNQFSLKLSSVTAADTAVYYCARDPRGYGAALDRLDLWGQGTCVTVSS
VL: DIQMTQSPSSLSASVGDRVTITCQSIKSVYNNRLGWYQQKCGKAPKLLIYETSILTSGVPSRFSGSGSGTDFTLTISSLQCEDFATYYCAGGFDRSGDTTFGQGTKVEIKR
The molecule B2 came in with a dissociation constant Kd of 1.63 nM.

(Values after patent US20260348974 (published 2026).)
